Our source for the Kd and Ki values is paper PMC8175443, “In vitro assessment and phase I randomized clinical trial of anfibatide a snake venom derived anti-thrombotic agent targeting human platelet GPIbα” (Scientific Reports, 2021).

B1: anfibatide (natural protein)
chain 1: DVDCLPGWSAYDQSCYRVFKLLKTWDDAEKFCTERPKGGHLVSIESAGERDFVAQLVSENKQTDNVWLGLKIQSKGQQCSTEWTDGSSVSYENFSEYQSKKCFVLEKNTGFRTWLNLNCGSEYAFVCKSPP
chain 2: GFCCPLRWSSYEGHCYLVVKEKKTWDDAEKFCTEQRKGGHLVSVHSREEADFLVHLAYPILDLSLIWMGLSNMWNDCKREWSDGTKLDFKAWAKTSDCLIGKTDGDNQWLNMDCSKKHYFVCKFKL
notes: anfibatide (agkisacucetin) alpha-subunit, snaclec of Deinagkistrodon acutus venom; disulfide-linked to the beta-subunit; anfibatide (agkisacucetin) beta-subunit, snaclec of Deinagkistrodon acutus venom; disulfide-linked to the alpha-subunit; Disulfide-linked alpha-beta heterodimer; MALDI-TOF single peak at m/z 29,799.7; also called agkisacucetin
B2: GPIbαN-Long WT (domain or fragment)
chain: HPHPICEVSKVASHLEVNCDKRNLTALPPDLPKDTTILHLSENLLYTFSLATLMPYTRLTQLNLDRCELTKLQVDGTLPVLGTLDLSHNQLQSLPLLGQTLPALTVLDVSFNRLTSLPLGALRGLGELQELYLKGNELKTLPPGLLTPTPKLEKLSLANNNLTELPAGLLNGLENLDTLLLQENSLYTIPKGFFGSHLLPFAFLHGNPWLCNCEILYFRRWLQDNAENVYVWKQGVDVKAMTSNVASVQCDNSDKFPVYKYPGKGCPTLGDEGDTDLYDYYPEEDTEGDK
modifications: sulfotyrosine at 276, 278, 279 (post translational sulfation that normally occurs at these positions)
B3: GPIbαN-Long 3Y/F (domain or fragment)
chain: B2 chain with Y278F, Y280F, Y281F
modifications: no Tyr sulfation at mature 276, 278, 279 (Tyr to Phe). Mature residue 1 = precursor 17 with no residue 0, so -2 = precursor 15. Disulfide-linked dimer through terminal Cys of the C-terminal …

Positions count from the first letter of the chain named.

One experiment addresses GPIbα (Homo sapiens) (UniProt P07359). The note with it: cited from earlier work.
For experiment [1], the target named is T1, GPIbα on human washed platelets (human (endogenous in platelets), UniProt P07359 17-652).
T1 construct: human platelet glycoprotein Ibα, endogenous on the platelet surface; also called platelet GPIbα; glycoprotein (GP) Ibα; source: endogenous, washed platelets of healthy human volunteers
The experiment can be described thus: flow cytometry on cells; competition on human washed platelets (2 x 10^7/mL, modified Tyrode's buffer pH 7.4, room temperature, 30 min); ligand: VWF A1 domain at 1.5 nM with FITC anti-VWF mAb; anfibatide 0-200 nM added 5 min before; Ki by Cheng-Prusoff. The note with it: one partner purified.

The target in experiment [2] is T1, GPIbα on human washed platelets. The experiment can be described thus: flow cytometry on cells; competition on human washed platelets (2 x 10^7/mL, modified Tyrode's buffer pH 7.4, room temperature, 30 min); ligand: FITC-conjugated mAb LJ-Ib10 at 10 nM; anfibatide 0-200 nM added 5 min before; Ki by Cheng-Prusoff. As to conditions: one partner purified. On the technique in general: A flow cytometer gives signals particle by particle.

Experiment [3] has the same target. The experiment can be described thus: flow cytometry on cells; competition on human washed platelets (2 x 10^7/mL, modified Tyrode's buffer pH 7.4, room temperature, 30 min); ligand: BP-αFIIa at 80 nM with streptavidin-PE; anfibatide 0-200 nM added 5 min before; Ki by Cheng-Prusoff. The note with it: one partner purified.
For the experiment “anfibatide”, the target named is B1. The experiment can be described thus: SPR; GPIbαN-Long captured by immobilised anti-SV40 mAb LJ-3A2 on an HC200M chip; anfibatide injected at increasing concentrations, 75 μL/min for 3 min; Biacore 3000; 135 mM NaCl, 20 mM HEPES pH 7.4, 0.005% Tween 20; steady-state mass ratios fit to a one-site model. As to conditions: both partners purified. (SPR reads the build-up and loss of mass on a sensor chip optically.)

One may read the Kd as the constant that tells how readily two partners part at equilibrium. Broadly, the Ki is a dissociation constant, usually derived from enzyme kinetics or from competition with a known ligand. Low values mean tighter binding, high ones weaker binding.

For VWF (from UniProt P04275), in the experiment with GPIbα (Homo sapiens), the equilibrium dissociation constant (Kd) is 1.5 nM.
For B1, the Ki in experiment [1] is 1.2 ± 0.5 nM; in experiment [2], 3.4 ± 1.1 nM; in experiment [3], 1.4 ± 0.1 nM.
In the case of B2, the Kd with anfibatide worked out at 21 ± 0.9 nM.
The same measure, in the same setting: with B3 the figure was 90.5 ± 9.2 nM.
